Among the data in publication PMC7094245 are Kd values, retold here.

The Kd is a measure of binding affinity in units of concentration. A low value points to higher affinity.

The series has as its target T1, IBV N protein amino-terminal region (region 1, NI) (Infectious bronchitis virus (strain …, UniProt P69598 1-133)).
T1 sequence: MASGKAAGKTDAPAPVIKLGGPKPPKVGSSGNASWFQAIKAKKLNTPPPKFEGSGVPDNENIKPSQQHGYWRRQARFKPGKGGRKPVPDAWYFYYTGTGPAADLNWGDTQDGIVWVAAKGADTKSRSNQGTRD
The series can be described thus: SPR. On the technique in general: In SPR one partner is held on a chip, and binding of the other changes the refractive index at the surface.

B1: IBV leader RNA (contains TRS) (ssRNA)
RNA: ACUUAAGAUAGAUAUUAAUAUAUAUCUAUUACACUAGCCUUGCGCUAGAUUUUUAACUGAACAAUACAGACCUAAAAAGUCUGUUUGAUG
Take B1: the Kd amounted to 1430 nM.
